This is an account of results in publication PMC2172684 (The Journal of Cell Biology, 2003).

Some targets named below: importin β I178A (human, UniProt Q14974 1-876, I178A); importin β E214A (human, UniProt Q14974 1-876, E214A); wild-type importin β (human, UniProt Q14974 1-876); importin β F217A (human, UniProt Q14974 1-876, F217A); GST–RanGTP (UniProt P62826 1-216).
Common to all, as to experiment: ELISA
A general note: An ELISA detects its analyte on a solid surface through an enzyme-linked reagent.

Assay [1] has as its target T1, GST-tagged Nup153 (895–1475) ( (mammalian), UniProt P49790 895-1475).
T1 sequence (looked up): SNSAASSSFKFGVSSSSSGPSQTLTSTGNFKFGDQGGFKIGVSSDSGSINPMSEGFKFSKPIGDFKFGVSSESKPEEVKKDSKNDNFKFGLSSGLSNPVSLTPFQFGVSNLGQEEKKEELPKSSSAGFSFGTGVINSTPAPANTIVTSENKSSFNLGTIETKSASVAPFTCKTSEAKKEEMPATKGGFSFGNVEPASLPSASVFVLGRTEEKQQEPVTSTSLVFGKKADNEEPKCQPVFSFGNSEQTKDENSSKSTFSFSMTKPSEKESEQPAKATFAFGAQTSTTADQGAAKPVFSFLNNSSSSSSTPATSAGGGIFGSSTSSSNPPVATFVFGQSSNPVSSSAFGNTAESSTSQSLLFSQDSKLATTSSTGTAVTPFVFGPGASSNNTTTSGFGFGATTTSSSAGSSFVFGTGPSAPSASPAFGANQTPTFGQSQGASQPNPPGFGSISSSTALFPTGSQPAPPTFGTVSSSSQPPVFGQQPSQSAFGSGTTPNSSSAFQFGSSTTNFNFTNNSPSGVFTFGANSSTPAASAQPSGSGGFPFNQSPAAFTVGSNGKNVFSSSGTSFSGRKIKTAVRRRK

Substitutions are numbered along the chain they refer to. Numbers in names are those of the source.

B1: importin β (1–396) (domain or fragment, human, UniProt Q14974 1-396, looked up)
chain: MELITILEKTVSPDRLELEAAQKFLERAAVENLPTFLVELSRVLANPGNSQVARVAAGLQIKNSLTSKDPDIKAQYQQRWLAIDANARREVKNYVLQTLGTETYRPSSASQCVAGIACAEIPVNQWPELIPQLVANVTNPNSTEHMKESTLEAIGYICQDIDPEQLQDKSNEILTAIIQGMRKEEPSNNVKLAATNALLNSLEFTKANFDKESERHFIMQVVCEATQCPDTRVRVAALQNLVKIMSLYYQYMETYMGPALFAITIEAMKSDIDEVALQGIEFWSNVCDEEMDLAIEASEAAEQGRPPEHTSKFYAKGALQYLVPILTQTLTKQDENDDDDDWNPCKAAGVCLMLLATCCEDDIVPHVLPFIKEHIKNPDWRYRDAAVMAFGCILEG
Turning to B1, in assay [1], the dissociation constant Kd turned out to be 1.2 ± 0.1 nM.

B2: importin β m-N (1–396) (domain or fragment, human, UniProt Q14974 1-396, looked up)
chain: B1 chain with I178A, F217A, Y255A, I263R
B2 displayed an equilibrium dissociation constant (Kd) in assay [1] of 160 ± 25.3 nM.

B3: importin β (304–876) (domain or fragment, human, UniProt Q14974 304-876, looked up)
chain: GRPPEHTSKFYAKGALQYLVPILTQTLTKQDENDDDDDWNPCKAAGVCLMLLATCCEDDIVPHVLPFIKEHIKNPDWRYRDAAVMAFGCILEGPEPSQLKPLVIQAMPTLIELMKDPSVVVRDTAAWTVGRICELLPEAAINDVYLAPLLQCLIEGLSAEPRVASNVCWAFSSLAEAAYEAADVADDQEEPATYCLSSSFELIVQKLLETTDRPDGHQNNLRSSAYESLMEIVKNSAKDCYPAVQKTTLVIMERLQQVLQMESHIQSTSDRIQFNDLQSLLCATLQNVLRKVQHQDALQISDVVMASLLRMFQSTAGSGGVQEDALMAVSTLVEVLGGEFLKYMEAFKPFLGIGLKNYAEYQVCLAAVGLVGDLCRALQSNIIPFCDEVMQLLLENLGNENVHRSVKPQILSVFGDIALAIGGEFKKYLEVVLNTLQQASQAQVDKSDYDMVDYLNELRESCLEAYTGIVQGLKGDQENVHPDVMLVQPRVEFILSFIDHIAGDEDHTDGVVACAAGLIGDLCTAFGKDVLKLVEARPMIHELLTEGRRSKTNKAKTLATWATKELRKLKNQA
As for B3, the equilibrium dissociation constant (Kd) in assay [1] came to 152 ± 17.5 nM.

B4: GST-tagged full-length Nup62 (natural protein, UniProt P17955 1-525, looked up)
chain: MSGFNFGGTGAPAGGFTFGTAKTATTTPATGFSFSASGTGTGGFNFGTPSQPAATTPSTSLFSLATQTSTTQTPGFNFGTTPASGGTGFSLGISTPKLSLSSTAATPATANTGSFGLGSSTLTNAISGASTSSQGTAPTGFVFGSSTTSAPSTGTTGFSFTSGSASQPGASGFNIGSVGSLAQPTALSGSPFTPATLATTTAGATQPAAATPTAATTSAGSTLFASIAAAPASSSTTVLSLSAPATTAATPTAGTLGFSLKAPGAAPGASTTSTTTTTTTTTTTASTSSSTTTTGFALSLKPLVPAGPSSVAATALPASSTAVGTTTGPAMTYAQLESLINKWSLELEDQERHFLQQATQVNAWDRTLIENGEKITSLHREVEKVKLDQKRLDQELDFILSQQKELEDLLSPLEESVKEQSGTIYLQHADEEREKTYKLAENIDAQLKRMAQDLKDIIEHLNMAGGPADTSDPLQQICKILNAHMDSLQWVDQSSALLQRRVEEASRVCESRRKEQERSLRIAFD
With B4, the equilibrium dissociation constant (Kd) is 89 ± 9 nM with importin β I178A, 770 ± 123 nM with importin β E214A, 77.3 ± 11.6 nM with wild-type importin β and 227 ± 33.3 nM with importin β F217A.

B5: importin β I178A/F217A/Y255A/I263R (m-N) (natural protein)
chain: MELITILEKTVSPDRLELEAAQKFLERAAVENLPTFLVELSRVLANPGNSQVARVAAGLQIKNSLTSKDPDIKAQYQQRWLAIDANARREVKNYVLQTLGTETYRPSSASQCVAGIACAEIPVNQWPELIPQLVANVTNPNSTEHMKESTLEAIGYICQDIDPEQLQDKSNEILTAIAQGMRKEEPSNNVKLAATNALLNSLEFTKANFDKESERHAIMQVVCEATQCPDTRVRVAALQNLVKIMSLYYQYMETAMGPALFARTIEAMKSDIDEVALQGIEFWSNVCDEEMDLAIEASEAAEQGRPPEHTSKFYAKGALQYLVPILTQTLTKQDENDDDDDWNPCKAAGVCLMLLATCCEDDIVPHVLPFIKEHIKNPDWRYRDAAVMAFGCILEGPEPSQLKPLVIQAMPTLIELMKDPSVVVRDTAAWTVGRICELLPEAAINDVYLAPLLQCLIEGLSAEPRVASNVCWAFSSLAEAAYEAADVADDQEEPATYCLSSSFELIVQKLLETTDRPDGHQNNLRSSAYESLMEIVKNSAKDCYPAVQKTTLVIMERLQQVLQMESHIQSTSDRIQFNDLQSLLCATLQNVLRKVQHQDALQISDVVMASLLRMFQSTAGSGGVQEDALMAVSTLVEVLGGEFLKYMEAFKPFLGIGLKNYAEYQVCLAAVGLVGDLCRALQSNIIPFCDEVMQLLLENLGNENVHRSVKPQILSVFGDIALAIGGEFKKYLEVVLNTLQQASQAQVDKSDYDMVDYLNELRESCLEAYTGIVQGLKGDQENVHPDVMLVQPRVEFILSFIDHIAGDEDHTDGVVACAAGLIGDLCTAFGKDVLKLVEARPMIHELLTEGRRSKTNKAKTLATWATKELRKLKNQA
As for B5, the equilibrium dissociation constant (Kd) with GST–RanGTP is 3.9 ± 0.4 nM.

One may read the Kd as the free concentration of one partner at which half of the binding sites on the other are occupied at equilibrium, for simple one-to-one binding. A lower Kd goes with higher affinity.
